Experimental data published in publication PMC9482650, “Quantitative fragmentomics allow affinity mapping of interactomes” (Nature Communications, 2022).

What was measured:
Experiment in all cases: holdup assay
Parameters in all cases: key: below the threshold = too weak to quantify, mostly under pKd 3.1 to 4
Conditions in all cases: plain residues with an end cap or a label only (N-terminal biotin on a linker: ttds)
DVL1, O14640 = biological target: T1, DVL1, O14640
T1 sequence (O14640 246-333, limits assumed, looked up): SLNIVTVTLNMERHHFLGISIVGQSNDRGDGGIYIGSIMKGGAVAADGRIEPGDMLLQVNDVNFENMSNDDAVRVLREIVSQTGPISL

IL16_2, Q14005 = biological target: IL16_2, Q14005
Inadl_7, Q8NI35 = biological target: Inadl_7, Q8NI35
MAGI1_5, Q96QZ7 = biological target: MAGI1_5, Q96QZ7
MPDZ_2, O75970 = biological target: T2, MPDZ_2, O75970
T2 sequence (O75970 252-347, limits assumed, looked up): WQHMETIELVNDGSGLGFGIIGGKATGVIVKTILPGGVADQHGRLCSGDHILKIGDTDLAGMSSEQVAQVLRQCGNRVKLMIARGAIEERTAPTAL

MPDZ_3, O75970 = biological target: T3, MPDZ_3, O75970
T3 sequence (O75970 372-473, limits assumed, looked up): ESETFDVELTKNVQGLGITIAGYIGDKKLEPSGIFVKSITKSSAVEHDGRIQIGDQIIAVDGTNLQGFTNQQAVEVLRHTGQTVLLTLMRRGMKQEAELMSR

MPDZ_7, O75970 = biological target: T4, MPDZ_7, O75970
T4 sequence (O75970 1146-1253, limits assumed, looked up): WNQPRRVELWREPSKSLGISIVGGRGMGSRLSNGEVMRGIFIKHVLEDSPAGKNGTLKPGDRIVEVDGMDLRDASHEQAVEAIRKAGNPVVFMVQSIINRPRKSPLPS

MPP1, Q00013 = biological target: T5, MPP1, Q00013
T5 sequence (Q00013 66-162, limits assumed, looked up): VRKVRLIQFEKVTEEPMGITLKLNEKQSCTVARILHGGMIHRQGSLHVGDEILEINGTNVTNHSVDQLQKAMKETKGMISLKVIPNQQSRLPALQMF

PARD3B_2, Q8TEW8 = biological target: PARD3B_2, Q8TEW8
PDLIM3, Q53GG5 = biological target: T6, PDLIM3, Q53GG5
T6 sequence (Q53GG5 1-94, limits assumed, looked up): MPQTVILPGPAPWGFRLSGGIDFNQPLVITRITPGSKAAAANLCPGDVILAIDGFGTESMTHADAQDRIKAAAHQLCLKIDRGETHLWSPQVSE

PDZD4, Q76G19 = biological target: T7, PDZD4, Q76G19
T7 sequence (Q76G19 125-224, limits assumed, looked up): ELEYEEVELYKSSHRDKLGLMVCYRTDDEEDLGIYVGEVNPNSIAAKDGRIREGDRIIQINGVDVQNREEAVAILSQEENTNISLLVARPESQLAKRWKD

PDZD7_1, Q9H5P4 = biological target: T8, PDZD7_1, Q9H5P4
T8 sequence (Q9H5P4 81-178, limits assumed, looked up): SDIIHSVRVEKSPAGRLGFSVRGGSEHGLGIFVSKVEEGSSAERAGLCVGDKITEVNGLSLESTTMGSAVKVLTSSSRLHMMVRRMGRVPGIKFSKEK

PDZRN3_2, Q9UPQ7 = biological target: T9, PDZRN3_2, Q9UPQ7
T9 sequence (Q9UPQ7 414-513, limits assumed, looked up): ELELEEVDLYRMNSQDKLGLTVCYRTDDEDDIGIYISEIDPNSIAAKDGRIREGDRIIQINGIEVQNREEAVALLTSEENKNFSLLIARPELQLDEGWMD

PREX1_1, Q8TCU6 = biological target: PREX1_1, Q8TCU6
PTPN13_2, Q12923 = biological target: PTPN13_2, Q12923
PTPN4, P29074 = biological target: T10, PTPN4, P29074
T10 sequence (P29074 512-599, limits assumed, looked up): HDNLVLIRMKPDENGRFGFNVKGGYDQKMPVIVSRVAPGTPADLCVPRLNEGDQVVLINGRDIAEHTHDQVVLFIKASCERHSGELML

SCRIB_4, Q14160 = biological target: SCRIB_4, Q14160
SHROOM3, Q8TF72 = biological target: T11, SHROOM3, Q8TF72
T11 sequence (Q8TF72 20-120, limits assumed, looked up): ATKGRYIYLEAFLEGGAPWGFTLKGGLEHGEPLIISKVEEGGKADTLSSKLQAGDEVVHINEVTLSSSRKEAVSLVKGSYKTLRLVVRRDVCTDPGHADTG

SHROOM4, Q9ULL8 = biological target: T12, SHROOM4, Q9ULL8
T12 sequence (Q9ULL8 5-102, limits assumed, looked up): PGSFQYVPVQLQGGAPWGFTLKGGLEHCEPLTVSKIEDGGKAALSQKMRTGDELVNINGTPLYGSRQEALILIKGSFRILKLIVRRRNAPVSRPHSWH

TJP3_1, O95049 = biological target: T13, TJP3_1, O95049
T13 sequence (O95049 6-103, limits assumed, looked up): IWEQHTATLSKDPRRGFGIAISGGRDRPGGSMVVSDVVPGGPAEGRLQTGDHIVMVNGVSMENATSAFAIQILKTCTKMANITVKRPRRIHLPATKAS

USH1C_1, Q9Y6N9 = biological target: T14, USH1C_1, Q9Y6N9
T14 sequence (Q9Y6N9 82-179, limits assumed, looked up): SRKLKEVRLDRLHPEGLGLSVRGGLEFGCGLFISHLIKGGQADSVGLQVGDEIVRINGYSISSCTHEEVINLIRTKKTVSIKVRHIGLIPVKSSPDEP

USH1C_3, Q9Y6N9 = biological target: T15, USH1C_3, Q9Y6N9
T15 sequence (Q9Y6N9 447-547, limits assumed, looked up): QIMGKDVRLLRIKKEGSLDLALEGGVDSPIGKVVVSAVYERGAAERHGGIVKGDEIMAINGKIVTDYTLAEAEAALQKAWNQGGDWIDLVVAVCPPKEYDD

Chain of Inadl_7, Q8NI35 (Q8NI35 1219-1332): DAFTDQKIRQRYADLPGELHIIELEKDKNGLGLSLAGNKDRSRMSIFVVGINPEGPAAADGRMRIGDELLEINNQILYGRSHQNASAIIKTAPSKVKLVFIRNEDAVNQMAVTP
Chain of PTPN13_2, Q12923 (Q12923 1363-1462): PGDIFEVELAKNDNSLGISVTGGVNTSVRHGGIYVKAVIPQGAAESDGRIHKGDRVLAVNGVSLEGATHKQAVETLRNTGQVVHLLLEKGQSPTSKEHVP
Chain of PREX1_1, Q8TCU6 (Q8TCU6 608-718): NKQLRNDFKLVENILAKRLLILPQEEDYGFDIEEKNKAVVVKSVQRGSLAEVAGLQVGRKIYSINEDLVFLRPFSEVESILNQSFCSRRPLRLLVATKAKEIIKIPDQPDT
Chain of SCRIB_4, Q14160 (Q14160 1095-1204): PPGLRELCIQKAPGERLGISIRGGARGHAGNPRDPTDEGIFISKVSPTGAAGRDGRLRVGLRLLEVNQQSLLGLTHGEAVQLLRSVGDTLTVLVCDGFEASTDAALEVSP
Chain of PARD3B_2, Q8TEW8 (Q8TEW8 376-471): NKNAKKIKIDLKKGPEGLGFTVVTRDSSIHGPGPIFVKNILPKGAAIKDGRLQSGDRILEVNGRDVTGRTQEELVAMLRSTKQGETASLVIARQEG
Chain of IL16_2, Q14005 (Q14005 350-450): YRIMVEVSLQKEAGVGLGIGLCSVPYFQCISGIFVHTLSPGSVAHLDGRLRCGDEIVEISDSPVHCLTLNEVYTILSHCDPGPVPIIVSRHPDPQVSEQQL
Chain of MAGI1_5, Q96QZ7 (Q96QZ7 986-1098): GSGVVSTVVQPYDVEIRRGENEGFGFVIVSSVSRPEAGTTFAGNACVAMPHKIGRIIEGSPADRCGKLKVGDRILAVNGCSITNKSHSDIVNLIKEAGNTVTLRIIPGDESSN

STLTIFETAL [ABCC4, O15439]
pKd (DVL1, O14640): below the threshold | pKd (IL16_2, Q14005): below the threshold | pKd (Inadl_7, Q8NI35): below the threshold | pKd (MAGI1_5, Q96QZ7): 5.11 | pKd (MPDZ_2, O75970): below the threshold | pKd (MPDZ_3, O75970): 4.18 | pKd (MPDZ_7, O75970): 5.01 | pKd (MPP1, Q00013): below the threshold | pKd (PARD3B_2, Q8TEW8): below the threshold | pKd (PDLIM3, Q53GG5): 4.11 | pKd (PDZD4, Q76G19): 4.08 | pKd (PDZD7_1, Q9H5P4): 4.25 | pKd (PDZRN3_2, Q9UPQ7): below the threshold | pKd (PREX1_1, Q8TCU6): below the threshold | pKd (PTPN13_2, Q12923): below the threshold | pKd (PTPN4, P29074): 4.97 | pKd (SCRIB_4, Q14160): 4.29 | pKd (SHROOM3, Q8TF72): below the threshold | pKd (SHROOM4, Q9ULL8): below the threshold | pKd (TJP3_1, O95049): below the threshold | pKd (USH1C_1, Q9Y6N9): 4.33 | pKd (USH1C_3, Q9Y6N9): below the threshold
